Assay results taken from paper PMC4759192.

Experiments:
[1] = biological target: complex I (NADH dehydrogenase) (bovine (endogenous in bovine heart)); assay: absorption spectroscopy of the co-purified supercomplex; concentrations of b-type and c-type cytochromes (redox difference spectra) and of complex IV (reduced form) in eight supercomplex samples, room temperature, HEPES-Na pH 7.8 with sucrose
[2] = biological target: complex IV (cytochrome c oxidase) (bovine (endogenous in bovine heart)); assay: as above
[3] = biological target: complex III (cytochrome c reductase/cytochrome bc1 complex) (bovine (endogenous in bovine heart)) (UniProt P00157); assay: co-sedimentation + native gel or EMSA; crystalline complex III exchanged into amphipol, stepwise sucrose gradient 0.8-1.2 M in HEPES-Na pH 7.8, 105,000 x g, 15 h, 4 C; fractions by BN-PAGE
[4] = biological target: complex IV (cytochrome c oxidase) (bovine (endogenous in bovine heart)); assay: native gel or EMSA; BN-PAGE of bovine heart mitochondria solubilized with digitonin

complex III (cytochrome c reductase/cytochrome bc1 complex) (from UniProt P00157 1-379; P00125 85-325)
stoichiometry N (complex III per complex I) [1]: 2
ratio b-type cytochrome/complex IV1 (average) (b-type cytochrome per complex IV monomer) [2]: 3.88
ratio c-type cytochrome/complex IV1 (average) (c-type cytochrome per complex IV monomer) [2]: 2.2
stoichiometry N (complex III per complex IV) [2]: 2
stoichiometry N [3]: 2

complex IV (cytochrome c oxidase)
stoichiometry N (complex IV per complex I) [1]: 1
stoichiometry N [4]: 2
